{
  "source": "paper PMC8934665",
  "about": "“AT-hook peptides bind the major and minor groove of AT-rich DNA duplexes”",
  "details_in_all_cases": "tags: none; hairpin, 9 bp stem, 4 nt loop",
  "key": {"[1]": {"target": "T1, ATHP1 (AT-hook peptide 1) (mammalian (species ), UniProt P52926 26-34)", "T1 chain": "KRGRGRPRK", "assay": "ITC; two-site model, site 2, n2 = 1.4; ITC, UV melting and fluorescence in 1xBPE (6 mM Na2HPO4, 2 mM NaH2PO4, 1 mM Na2EDTA, pH 7.0), ITC 10 uM DNA; native MS probably in ammonium acetate (concentration not given); temperature not stated"}, "[2]": {"target": "T2, ATHP2 (AT-hook peptide 2) (mammalian (species ), UniProt P52926 45-53)", "T2 chain": "PKRPRGRPK", "assay": "native IMS-MS; Hoechst 33258 in minor groove, 1:1:1 complex; ITC, UV melting and fluorescence in 1xBPE (6 mM Na2HPO4, 2 mM NaH2PO4, 1 mM Na2EDTA, pH 7.0), ITC 10 uM DNA; native MS probably in ammonium acetate (concentration not given); temperature not stated"}, "[3]": {"target": "T3, ATHP3 (AT-hook peptide 3) (mammalian (species ), UniProt P52926 74-83)", "T3 chain": "KRPRGRPRKW", "assay": "ITC; two-site model, site 2, n2 = 1.1; ITC, UV melting and fluorescence in 1xBPE (6 mM Na2HPO4, 2 mM NaH2PO4, 1 mM Na2EDTA, pH 7.0), ITC 10 uM DNA; native MS probably in ammonium acetate (concentration not given); temperature not stated"}, "[4]": {"target": "T1, ATHP1 (AT-hook peptide 1)", "assay": "ITC; two-site model, site 1, n1 = 1.3; ITC, UV melting and fluorescence in 1xBPE (6 mM Na2HPO4, 2 mM NaH2PO4, 1 mM Na2EDTA, pH 7.0), ITC 10 uM DNA; native MS probably in ammonium acetate (concentration not given); temperature not stated"}, "[5]": {"target": "T3, ATHP3 (AT-hook peptide 3)", "assay": "ITC; two-site model, site 1, n1 = 1.3; ITC, UV melting and fluorescence in 1xBPE (6 mM Na2HPO4, 2 mM NaH2PO4, 1 mM Na2EDTA, pH 7.0), ITC 10 uM DNA; native MS probably in ammonium acetate (concentration not given); temperature not stated"}},
  "data": [
    {"binder": "GGATATTGCCCCCGCAATATCC (structured_DNA)", "note": "[FL876]", "values": [
      {"measurement": "Ka", "setting": "[1]", "result": "4e+06", "unit": "M⁻¹"},
      {"measurement": "binding result", "setting": "[2]", "result": "binds"},
      {"measurement": "Ka", "setting": "[3]", "result": "1.1e+06", "unit": "M⁻¹"},
      {"measurement": "Ka", "setting": "[4]", "result": "1.9e+08", "unit": "M⁻¹"},
      {"measurement": "Ka", "setting": "[5]", "result": "1.1e+07", "unit": "M⁻¹"}
    ]}
  ]
}
